Measured values: the domain aggregation screens of Martell et al. (2025)

Assay: soluble fraction after stress (log2 fold change); higher = more stays soluble; pooled small domains, quantitative proteomics
Conditions: stress: pH 4
Outline: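 Small protein domains from pooled custom libraries were exposed to pH 4, then quantified with high-throughput quantitative proteomics. The fold change in how much of each domain remains soluble is read as aggregation propensity. It is given as log2, with higher values meaning more stayed soluble.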

Row | Sequence | soluble fraction (log2)
1 | HMVTQVDYGTFLTRIDEGKVKSVEIQDNQIAFTAIDEAGKENIYVTGKVNDPELVDRLLAADIEDFSQVIP | -1.29
2 | HMNTKLKPLYLLDIFREMTDERHRMTVPELLEELQRRGITAERKGIYRDIDALIQYGADIKHTGTGYYLAR | 0.18
3 | HMELQYSQEIEEAQKILENLGLYRGEIDGINGINTKSAIREFQRKSGLVVDGILGPNTTNALSKGSDAYIT | 0.0515
4 | HMNQADNFNSLTKREKDVLLLVTQGESNKSIADKLVLSEVTVKSHLNSIFKKLNVTNRTQAVLVAMQMNLV | -0.85
5 | HMGESFEELAREISDDTGSKTEGGETGLFPRGVMAPQFEEAAFLLKVGDISEPIRTKFGYHIIKLKEIKP | -0.0823
6 | HMKTRIQDLRKELGVTQSELADAVDVTRQTIISLEGGRYKASLVLAHKLAQFFHVTIEELFIFD | -0.918
7 | HMDLPRQSQYQALVVSYARRAGIDEAEEDLLAAFEVWRMRHNHDLAGGRTARDFILAYLPQYQRHKE | -0.59
8 | HMNLAISAYQQLKSDIIRGVYAPGEKLLMSRLKVRYGLGIGPMREALSQLVSEHLVTAASQRGYRVAGM | 0.129
9 | HMKELVAGQTVRVHHSIGFGQTGTVTALNSLKTTLPNGLRTNTASILFQNNEKVVLPISNFDIIES | 0.403
10 | HMSKPVYILINKPKGFLASSTDKKVKKSVNDLINISNLNKIYPFDNMGRTSSGLLLLSNDLYFKKHFKDKI | 0.209
11 | HMHPSNQELTKVLAQGSELVLAQKYIEASQIFTRVIEIDQTWAEAWNKRATVFYLLQNYEASQKDIDEV | -0.135
12 | HMRVNINVSENILDWVMKRVNPSVLSSKQGELLYAWKEGRKVPTYNQIEKMSKVTGIPLGYFFLEKPPVE | 0.411
13 | HMNEDFSEIIAAVKKFAVDNLSLSTLSDEELEEQIKTITDNMIGNRYVSIKNRVDIAQQVFSSIR | -0.435
14 | HMDDIVFPNPTKNQINVSIDGLKNIYNLSGKLLISTNDKIIDVSILKAGVYFINTNEQFYKFVK | -0.797
15 | HMAPVLTRREHEVLHLLTDGLDNRTIARNLFISEATVKFHLHNIMGKFGVHRRAALVSTALRG | -0.182
16 | HMVDSTDLIPLLIKVSREKQGNKKLNWGEWLKIPENIYLKQINENIARKVFEDTNDLIDEAVNYINRKRRN | -0.558
17 | HMEAPNELLVPEGARPARADRVLAAAFPEHSRTALQRAFDAGLVRRANLVLSRDTAVAGGDRIAFSLPAV | 0.0302
18 | HMTDWNTVEKETLSAIQKVLSGQASWIDLSPADHSIRHMQHEMVQQAGLISQSYGKEPMRRIRIYQNP | -0.036

Row | Sequence | soluble fraction (log2)
19 | HMVLNVMIEEEVHREIIAAISKLPKERRRVVELSMAGFSQEEIAEKMAISVNTVKTIKLRAYRVLRERLKG | -0.208
20 | HMNGDYFEYRYAVNGSRSTPPSLSKTSRNPSGWSTTVPTVGNLQYLWFTVAKINGETNSLIQNWSTPARQT | 0.143
21 | HMSSNLTVFTRNNAIIVNSDVVRKLNVFAVDGRLVRSVDLSVGENVINNISRGMYLIDKQKVVV | ≥ 0.43
22 | HMRTLRENIMDYFKQQTIIQKSSVILLPMSKRQLADYFGVQRPSLFRELKKLKEEGIIEINNRTITIK | -0.0293
23 | HMDGEFINLKNRAGTEIEARILNYQNGQVKLERKDGVTFVVSISMFDAKSVIAINHKIAEIIDT | 0.12
24 | HMNIKITKSKNSEHYSIIYNTKINGKRTSKIYENIGNFEKLKLRAGEQEPIEWLKNYVSELNKKQKEDT | 0.22
25 | HMGKPSSEELEALGRRTLEENVDVVEEILGGRDPKGKKIKYLEGLMMRALRGQETPEAVRRTLEELIFK | 0.00684
26 | HMAKRKYKSFKDVAEFAQKLGIKSSTEWWAYVRGHEIPSDIPKDPSTYYKKEWTTWGDFLGTGYVSSA | ≥ 0.43
27 | HMPALELLVESKKPLLIHGEKIAEDINLFDREKYFIDDELIRIVKEFPSLKIILEHVSSKYGAD | -1.59
28 | HMSQDINVFIKTNPENATIIWDGESKGTNGIFKSNAGAHRLRIEMQGYESIDQDIQVSDKQFSFEYNLKKE | 0.22
29 | HMVRSEDLIGLQGRITLATDVETRGFVELSVKGSLLRRPALSLKGPLAKNTAVVVTASNDHTLEVEAL | -0.77
30 | HMNNLTEEAINHLVLEVKNVLLTDALFLGKATDSQLMLRIKETIDQRNGQYNIGMNDRERIARRVFARLR | ≥ 0.43
31 | HMGSLAVVPSLTGKTLQEAQSKAADYGLALEIEGYVASTAVDYGRIVSQSPDAGFSVKSGSSVKVSVSAG | ≥ 0.43
32 | HMNEQVAVVSGSQVNVRSGPGTTSAVVGQVSKGDNLPVLNQSGDWYQIKLPGGNAGWVAGWLVSLRPTT | 0.237
33 | HMKDPSFELMSVAESFYRSGNVDHAVYALEKYLEVYADGDYTDRAHDLLSQARKGLTYPHGYPPLQI | -1.33
34 | HMSSDLESVIGTHSQEANFALRSWGWIQPDETWKNLRPDQVSQILERANEFMAKAIESFANAQSE | -0.984
35 | HMLEEIIDVKRFLVENVRGVSEKTALAILSEFGDKTMDVLRNSPNELYRIKGMSGKRIEVIKDAIANATAS | -1.33
36 | HMLFVKLSDAQRSMFGAKLARDARIQSEYAQKLPSENYEVFGKALADMLLDETHFKTFYPLLVEYGYTQPK | -0.649
